{
  "source": "patent US20040253677",
  "system": "HA-GβL",
  "data": [
    {"substance": "myc-mTOR (full-length)", "values": [
      {"measurement": "in vitro mTOR kinase activity (autophosphorylation and activity towards GST-S6K1)", "result": "GβL-mediated stimulation of the mTOR kinase activity correlates with the amount of GβL bound to mTOR and is independent of raptor"}
    ]}
  ]
}
